Measurements from the nanobody polyreactivity screen of Harvey et al. (2022).

Assay: yeast display, Sf9 membrane polyspecificity reagent, FACS + sequencing; frameworks hold sequencing errors
In short: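 In a synthetic yeast display library (Saccharomyces cerevisiae BJ5465), nanobody expression was induced with galactose for 36–48 hours. FACS gates were set low and high (top ~1%) using anti-HA fluorescence for expression and streptavidin fluorescence for binding of the Sf9 membrane reagent. Each polyreactivity label is drawn from the gate of origin.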

Sequence | polyreactivity (PSR sort gate)
QVQLVESGGGLVQAGCSLRLTCAASGSIFRTNAMGWSRQAPGKERELVAAITGSGGSTYYADSVKGRFTISRDNAKNTVYLQMNSLKPEDTAVYYCAAEFGSFVSPYNYYFWGLGTQVTVSS | low polyreactivity
QVQLVESGGGLVQAGCSLRLTCPASGSIIKLYAMGWYRQAPGKEREMVAAITSVGSTYYADSVKGRFTISRDNAKNTVYFQMKSLKPEDTAVYYCAASVYYLYFHAKYDYWGQGTLVTVSS | low polyreactivity
QVQLVESGGGLVQAGCSLSISCAASGSTFFRYAMGLYRQAPGKERELVAAISKSGASTYYADSVKGSFTISRDNAKNTVYLQMNRLKPEDTAVYYCNADVKKSSAREWQYCYDYWGQGTQVTVSS | low polyreactivity
QVQLVESGGGLVQAGDSLRLSCAASGIILLSYAMGWYRQAPGKERELVAAITSGGGTNYADSVKGRFTISRDNAKNTVYLQMNSLKPEDTAVYYCAVGAYAGLYYYWGQGTQVTVSS | low polyreactivity
QVQLVESGGGLVQAGGCLRISFAASGLTFVWYGMGWYRPATGKERELVAAITSVRTTYYADSVKGRFTISRDNAKNSVYLQMTSLKAEDSGFYYCAAQWAGYGDLPWPYSVIVEFYYWGQGSQVTVSS | low polyreactivity
QVQLVESGGGLVQAGGCLRLSCAASGFIFYVNAMGWYRLAPGKERELVAAISSSGTRTYYADSVKGRFTISRDNAKNTVYLQMNSLKPEDTAVYYCNAAQSVELGYDYWGQGTQVTVSS | high polyreactivity
QVQLVESGGGLVQAGGCLRLSCAASGVIFTRNVMGWYRQAPGKERELVAAISSGGRTYYADSVKGRFTISRDNAKNTVYLQMNSLKQEDTAVYYCNAGNRGVYRYDYWGQGTQVTVSS | high polyreactivity
QVQLVESGGGLVQAGGCLRLSCAASGYIFRVYDMGWYRQAPGKERELVAAISGSGGRTYYADSVKGRFTISRDNAKNTVYLQMISLKPEDTAVYDCSAYRVSEYDYWGQGTQVTVSS | high polyreactivity
QVQLVESGGGLVQAGGCLRLSCAASVRTFYYYAMGWYRQAPGKEMELVAAITSTGGSTYYADSVKGRFTISRDNAKNTVYLQMNSLKPEDTAVYYCNTDPYTTQWYTTWFEYWGQGTQVTVSS | low polyreactivity
QVQLVESGGGLVQAGGILLLSCAASGFIFWYYTMGWYKQAPGKERELVAAINSGGSTNYPDSVKGRFTSSRDNAKNTVYLQMNSLKPEDTAVYYCAALVWYSGELFYYWGQGTQVTVSS | low polyreactivity
QVQLVESGGGLVQAGGILRISCAAYGSIFLAYVMGWYRQAPGKERELVAAISYRGGSTYYADSVKGRFTISRDNSKNTVYLQMNSLKPEDTAVYYCAAEHLWGLYNYWGQGTQVTVSS | low polyreactivity
QVQLVESGGGLVQAGGILRLSCAASGFIFGYYGMGWYRQAPGKERELVAAISRSGGGTFYAVSVKGRFTISRDNAKNTVYLQMNSLKPEDTAVYYCNAKYYRKSGLSGAYPYYYWGQGTQVTVSS | high polyreactivity
QVQLVESGGGLVQAGGILRLSCAASGFTFDFNAMGWYRQAPGKERELVAAISSGASTNYADSVKGRYTISRDNAKNTVYLQMNRVIPLDSEVYYCAVYFYGSSTRSYQARFDYWGQGTQVTVSS | high polyreactivity
QVQLVESGGGLVQAGGILRLSCAASGFTFSWYAMGWYRQAPGKERELVAAINADGGTTYYADSVKGRFTISRDNAKNTVYLQMNSLKPEDTAVYYCAAELSVDKYDYWGQGTQVTVSS | low polyreactivity
QVQLVESGGGLVQAGGILRLSCAASGFTLADNTMVWYRQSPGKERELVADITSGASTYYADSVKGRFTISRDNAKNTVYLQMNSLKPEDTAVYYCAALYYWRSGYDYWGQGTQVTVSS | low polyreactivity
QVQLVESGGGLVQAGGILRLSCAASGIILYINAMGWYRQAPGKERELVAAITSDGSTNYADSVKGRITISRDNAKYTVYLQMNSLKPEDTAVYYCAVDLPWGTGVSQYPESDYWGQGTQVTVSS | low polyreactivity

Sequence | polyreactivity (PSR sort gate)
QVQLVESGGGLVQAGGILRLSCAASGRIFGYNAMGWYRQAPGKERELVAAIRQRAGSTNYADSVKGRFTISRDNSKNTVYLQMKSLKPEDTAVYYCAVDGNFFGEVRPYDYWGQGSQVTVSS | low polyreactivity
QVQLVESGGGLVQAGGILRLSCAASGRIFKTYAMGWYRQAPGKERELVAAITASGGRTYYADSVKGRFTISRDNAKNTVYLQMNSLKPEDTAVYYCAADSGNEYDYWGQGTQVTVSS | low polyreactivity
QVQLVESGGGLVQAGGILRLSCAASGRIFQPYAMGWYRQAPGKERELVAAISRGGTTYYADSVKGRFTISRDNAKNTVYLQMNSLKTEDTAVYYCAAPSYYRYDYWGQGTQVTVSS | high polyreactivity
QVQLVESGGGLVQAGGILRLSCAASGRTFGLYAMGRYRQAPGKERELVAAITRSDGGTNYADSVKGRFTISRDNAKNTVYLQMNSLKAEDTAVYYCAVDLGYVSHVSWYAYEYWGQGTQVTVSS | low polyreactivity
QVQLVESGGGLVQAGGILRLSCAASGRTFLYYAMGWYRQAPGKERELVAGITSGGSTNYADSVKGRFTISRDTAKNTDYLQMNSLKPEDTAVYYCAVDQGYYRTADVNYDYWGQGTQVTVSS | low polyreactivity
QVQLVESGGGLVQAGGILRLSCAASGSIFEYNAMGRYRKPPGKERELCASISWSGGSTYYADSVKGRYTISRDNAKNTVYLQMYSLKPEATAVYYCNVRKWSRWFRESYYWGQGTQVTVSS | high polyreactivity
QVQLVESGGGLVQAGGILRLSCAASGSIFGWYAMGWYRQAPGKERELVAGISWSGANTYYADSVKGRFTISRDNAKNTVYLQMNSLKPEDTAVYYCAAGPGRYYSRRYGYWGQGTQVTVSS | high polyreactivity
QVQLVESGGGLVQAGGILRLSCAASGSIFIYYAMVWYRQAPGKERELVAAISSSGGRTYYADSVKGRFTISRDNAKNTVYLQMNSLTPEDTAVYYCNAVGRRWYRDPARYNEYNYWGQGTQVTVSS | high polyreactivity
QVQLVESGGGLVQAGGILRLSCAASGSIFNRNAMGWYRQAPGKEREFVADISWSGGSTYYADSVKGRFTISRDNAKNTVYLQMNSLKPEDTAVYYCAAKSTGRWWRAGYVYWGQGTQVTVSS | high polyreactivity
QVQLVESGGGLVQAGGILRLSCAASGSIFQTNAMGWYRPAPGKERELVAAISQRGGRTYYADSVKGRFTISRDYAKNTVYLHLKSLKPEDTAVYYGAATQSQRVHAARYGYWGQGSQVTVSS | high polyreactivity
QVQLVESGGGLVQAGGILRLSCAASGSIFYHYAMGWYRQAPGKDREFVAAITRRGTSTYYADSVKGRFTISRDIAKKTVYLQMNSLKPEDTAVYYWAARYGPNMDYWGQGTQVTVSS | high polyreactivity
QVQLVESGGGLVQAGGILRLSCAASGSIVVGYAMGWYRPAPGKERELVGAITGSGTRTDYADSVKGRFTISRDNAKNPVYLHMNSLKPEDTAVYNCAAPMSYKNVKYDYWGQGTQVTVSS | low polyreactivity
QVQLVESGGGLVQAGGILRLSCAASGSNFWTNAMGWYRQAPGKERELVARISPGGSTNYADSVKGRFTISRDNAKNTVYLQMNSLKPEDTAVYYCAAQRGYVYGYDYWGQGTQVTVSS | low polyreactivity
QVQLVESGGGLVQAGGILRLSCAASGSTFGYYAMGWYRPAPGKERELVAAIRSDDITYYADSVKGRFTISRDNAKNTVYLQMISLKPEDTAVYYCAVSQRYGGRRGCYWGQGTQVTVSS | low polyreactivity
QVQLVESGGGLVQAGGILRLSCAASGSTFIYNAMGLYRQAPGKEREFVASISASGGSTRYADSVKGRFTISRDNAKNTVYLQMNSLKQEDTAVYYCAKLLYLGRWRFPAGYNHWGQGTQVTVSS | high polyreactivity
QVQLVESGGGLVQAGGILRLSCAASGSTFNDYAMGRYRQAPGKERELVAAISASGSITYYADSVKGRFTISRDIAKNTVNLQMISLKPEDTAVYYCNARGYRGYDYWGQGTQVTVSS | high polyreactivity
